Experimental data reported in PMC5376645, “Long-acting protein drugs for the treatment of ocular diseases” (Nature Communications, 2017).

B1: NVS0, the Fab version of brolucizumab (Fab, V domains shown)
VH: EVQLVESGGGLVQPGGSLRLSCTASGFSLTDYYYMTWVRQAPGKGLEWVGFIDPDDDPYYATWAKGRFTISRDNSKNTLYLQMNSLRAEDTAVYYCAGGDHNSGWGLDIWGQGTLVTVSS
VL: EIVMTQSPSTLSASVGDRVIITCQASEIIHSWLAWYQQKPGKAPKLLIYLASTLASGVPSRFSGSGSGAEFTLTISSLQPDDFATYYCQNVYLASTNGANFGQGTKLTVL
notes: as the Fab part of the heavy chain of Dm4 (LAVA1), without the GSGGG linker and the LINK domain; as the light chain of Dm4 (LAVA1); Made by converting the anti-VEGF scFv brolucizumab to a Fab format; also called untagged anti-VEGF Fab
B2: LAVA25, non-glycosylated variant of LAVA1 (Fab, V domains shown)
VH: EVQLVESGGGLVQPGGSLRLSCTASGFSLTDYYYMTWVRQAPGKGLEWVGFIDPDDDPYYATWAKGRFTISRDNSKNTLYLQMNSLRAEDTAVYYCAGGDHNSGWGLDIWGQGTLVTVSS
VL: EIVMTQSPSTLSASVGDRVIITCQASEIIHSWLAWYQQKPGKAPKLLIYLASTLASGVPSRFSGSGSGAEFTLTISSLQPDDFATYYCQNVYLASTNGANFGQGTKLTVL
notes: as the Fab part of the heavy chain of Dm4 (LAVA1); linker; TSG6, human, LINK domain (HABP), the N-linked glycosylation site deleted by substitution of the asparagine residue; as the light chain of Dm4 (LAVA1); The substitution is in Supplementary Data 2
B3: LAVA1 (NVS24): NVS0 Fab with the LINK domain of human TSG6 fused to the C terminus of the heavy chain (Fab, V domains shown)
VH: EVQLVESGGGLVQPGGSLRLSCTASGFSLTDYYYMTWVRQAPGKGLEWVGFIDPDDDPYYATWAKGRFTISRDNSKNTLYLQMNSLRAEDTAVYYCAGGDHNSGWGLDIWGQGTLVTVSS
VL: EIVMTQSPSTLSASVGDRVIITCQASEIIHSWLAWYQQKPGKAPKLLIYLASTLASGVPSRFSGSGSGAEFTLTISSLQPDDFATYYCQNVYLASTNGANFGQGTKLTVL
notes: Fab heavy chain of NVS0 (from brolucizumab); linker; TSG6 (TNF-stimulated gene 6 protein), human, LINK domain; Fab light chain of NVS0 (from brolucizumab); The LINK domain has a natural N-linked glycosylation site
B4: brolucizumab, an anti-VEGF scFv (scFv, V domains shown)
VH: EVQLVESGGGLVQPGGSLRLSCTASGFSLTDYYYMTWVRQAPGKGLEWVGFIDPDDDPYYATWAKGRFTISRDNSKNTLYLQMNSLRAEDTAVYYCAGGDHNSGWGLDIWGQGTLVTVSS
VL: EIVMTQSPSTLSASVGDRVIITCQASEIIHSWLAWYQQKPGKAPKLLIYLASTLASGVPSRFSGSGSGAEFTLTISSLQPDDFATYYCQNVYLASTNGANFGQGTKLTVL
notes: NVS0 is the Fab version of this scFv
B5: LAVA46, variant of LAVA1 with an additional disulfide bond in the LINK domain (Fab, V domains shown)
VH: EVQLVESGGGLVQPGGSLRLSCTASGFSLTDYYYMTWVRQAPGKGLEWVGFIDPDDDPYYATWAKGRFTISRDNSKNTLYLQMNSLRAEDTAVYYCAGGDHNSGWGLDIWGQGTLVTVSS
VL: EIVMTQSPSTLSASVGDRVIITCQASEIIHSWLAWYQQKPGKAPKLLIYLASTLASGVPSRFSGSGSGAEFTLTISSLQPDDFATYYCQNVYLASTNGANFGQGTKLTVL
notes: as the Fab part of the heavy chain of Dm4 (LAVA1); linker; TSG6, human, LINK domain (HABP), with cysteine residues introduced for an additional disulfide bond and substitutions at and around the observed digestion sites; as the light chain of Dm4 (LAVA1); The substitutions are in Supplementary Data 2
B6: LAVA2, protease-resistant variant of LAVA1 (Fab, V domains shown)
VH: EVQLVESGGGLVQPGGSLRLSCTASGFSLTDYYYMTWVRQAPGKGLEWVGFIDPDDDPYYATWAKGRFTISRDNSKNTLYLQMNSLRAEDTAVYYCAGGDHNSGWGLDIWGQGTLVTVSS
VL: EIVMTQSPSTLSASVGDRVIITCQASEIIHSWLAWYQQKPGKAPKLLIYLASTLASGVPSRFSGSGSGAEFTLTISSLQPDDFATYYCQNVYLASTNGANFGQGTKLTVL
notes: as the Fab part of the heavy chain of Dm4 (LAVA1); linker; TSG6, human, LINK domain (HABP), with amino acid substitutions around the observed proteolytic sites; as the light chain of Dm4 (LAVA1); The substitutions are in Supplementary Data 2
B7: LAVA45, variant of LAVA1 with an additional disulfide bond in the LINK domain (Fab, V domains shown)
VH: EVQLVESGGGLVQPGGSLRLSCTASGFSLTDYYYMTWVRQAPGKGLEWVGFIDPDDDPYYATWAKGRFTISRDNSKNTLYLQMNSLRAEDTAVYYCAGGDHNSGWGLDIWGQGTLVTVSS
VL: EIVMTQSPSTLSASVGDRVIITCQASEIIHSWLAWYQQKPGKAPKLLIYLASTLASGVPSRFSGSGSGAEFTLTISSLQPDDFATYYCQNVYLASTNGANFGQGTKLTVL
notes: as for B5
B8: LAVA3, protease-resistant variant of LAVA1 (Fab, V domains shown)
VH: EVQLVESGGGLVQPGGSLRLSCTASGFSLTDYYYMTWVRQAPGKGLEWVGFIDPDDDPYYATWAKGRFTISRDNSKNTLYLQMNSLRAEDTAVYYCAGGDHNSGWGLDIWGQGTLVTVSS
VL: EIVMTQSPSTLSASVGDRVIITCQASEIIHSWLAWYQQKPGKAPKLLIYLASTLASGVPSRFSGSGSGAEFTLTISSLQPDDFATYYCQNVYLASTNGANFGQGTKLTVL
notes: as for B6
B9: LAVA24, non-glycosylated variant of LAVA1 (Fab, V domains shown)
VH: EVQLVESGGGLVQPGGSLRLSCTASGFSLTDYYYMTWVRQAPGKGLEWVGFIDPDDDPYYATWAKGRFTISRDNSKNTLYLQMNSLRAEDTAVYYCAGGDHNSGWGLDIWGQGTLVTVSS
VL: EIVMTQSPSTLSASVGDRVIITCQASEIIHSWLAWYQQKPGKAPKLLIYLASTLASGVPSRFSGSGSGAEFTLTISSLQPDDFATYYCQNVYLASTNGANFGQGTKLTVL
notes: as for B2

Tests used:
[1] = biological target: T1, human VEGF-A165 (VEGF homodimer with each monomer having 165 amino acid residues) (Homo sapiens, UniProt P15692-4, strain, biotin (site not stated; named for Supplementary Table 2 only)); assay: SPR; Biacore as per the manufacturer's protocol; kinetic rate constants and affinity of the Fab constructs for biotinylated hVEGF-A165; conditions: both partners purified
T1 construct: also called hVEGF-A165; hVEGF; source: bought: Peprotech (catalogue number AF-100-20)
T1 sequence (P15692 whole entry, looked up, change not shown): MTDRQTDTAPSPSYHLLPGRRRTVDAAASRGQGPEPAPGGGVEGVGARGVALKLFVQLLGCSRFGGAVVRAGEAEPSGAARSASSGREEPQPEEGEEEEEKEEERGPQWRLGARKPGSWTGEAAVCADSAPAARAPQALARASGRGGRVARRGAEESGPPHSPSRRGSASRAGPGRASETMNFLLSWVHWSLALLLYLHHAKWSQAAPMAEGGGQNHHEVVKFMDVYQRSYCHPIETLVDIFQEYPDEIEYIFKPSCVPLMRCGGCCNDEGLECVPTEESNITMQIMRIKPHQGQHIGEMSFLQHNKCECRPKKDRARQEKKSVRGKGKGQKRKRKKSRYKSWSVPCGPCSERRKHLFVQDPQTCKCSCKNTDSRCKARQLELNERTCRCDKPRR

[2] = biological target: T1, human VEGF-A165 (VEGF homodimer with …); assay: inhibition of binding of hVEGF-A165 to hVEGFR2-Fc (luminescence read-out); antibody titrated (pM); binding signal in relative luminescence units; triplicates; conditions: both partners purified

| Binder | Kd [1] | koff [1] | kon [1] | IC50 [2] |
| --- | --- | --- | --- | --- |
| B1 | 0.0142 nM | 7.87e-05 s⁻¹ | 5.51e+06 M⁻¹ s⁻¹ | 0.263 nM |
| B2 | 0.0115 nM | 0.000213 s⁻¹ | 1.86e+07 M⁻¹ s⁻¹ | – |
| B3 | 0.000176 nM | 1.01e-05 s⁻¹ | 5.75e+07 M⁻¹ s⁻¹ | 0.28 nM |
| B4 | – | – | – | 0.248 nM |
| B5 | 0.00413 nM | 0.000257 s⁻¹ | 6.23e+07 M⁻¹ s⁻¹ | – |
| B6 | 0.00453 nM | 0.000185 s⁻¹ | 4.1e+07 M⁻¹ s⁻¹ | 0.207 nM |
| B7 | 0.00307 nM | 7.21e-05 s⁻¹ | 2.35e+07 M⁻¹ s⁻¹ | – |
| B8 | 0.000161 nM | 1.19e-05 s⁻¹ | 7.39e+07 M⁻¹ s⁻¹ | 0.301 nM |
| B9 | 0.00882 nM | 0.000198 s⁻¹ | 2.25e+07 M⁻¹ s⁻¹ | – |
